# Results: publication PMC6415861, “The renal transport protein OATP4C1 mediates uptake of the uremic toxin asymmetric dimethylarginine (ADMA) and efflux of cardioprotective L-homoarginine” (PLoS ONE, 2019)
# T1: OATP4C1 (Homo sapiens, UniProt Q6ZQN7)
# T1 construct: gene SLCO4C1
# T1 sequence (Q6ZQN7 1-724): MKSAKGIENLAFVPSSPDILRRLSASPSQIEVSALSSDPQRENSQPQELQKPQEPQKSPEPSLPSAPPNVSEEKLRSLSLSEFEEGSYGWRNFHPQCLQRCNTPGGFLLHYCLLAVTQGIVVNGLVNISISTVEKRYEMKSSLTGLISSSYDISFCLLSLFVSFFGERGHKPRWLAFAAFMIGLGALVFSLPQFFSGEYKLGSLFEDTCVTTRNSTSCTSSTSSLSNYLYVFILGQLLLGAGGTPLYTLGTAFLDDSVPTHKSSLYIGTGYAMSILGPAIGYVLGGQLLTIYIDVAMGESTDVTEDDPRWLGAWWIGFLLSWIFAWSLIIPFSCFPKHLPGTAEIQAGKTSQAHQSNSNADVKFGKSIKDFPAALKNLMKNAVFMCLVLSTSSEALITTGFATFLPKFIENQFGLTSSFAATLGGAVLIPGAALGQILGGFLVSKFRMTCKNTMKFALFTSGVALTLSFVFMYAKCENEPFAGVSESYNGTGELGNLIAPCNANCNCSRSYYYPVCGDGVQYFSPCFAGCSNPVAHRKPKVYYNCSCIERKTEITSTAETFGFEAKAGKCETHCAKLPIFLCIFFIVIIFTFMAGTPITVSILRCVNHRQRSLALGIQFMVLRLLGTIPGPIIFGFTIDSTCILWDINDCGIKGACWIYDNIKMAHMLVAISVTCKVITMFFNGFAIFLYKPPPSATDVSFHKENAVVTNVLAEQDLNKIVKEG
# Legend:
# OATP4C1 = target: T1, OATP4C1; assay: inhibition of OATP4C1-mediated L-homoarginine ([…]) net uptake in HEK cells; format: cell-based
# [1] = substrate: N=C(N)NCCCC[C@H](N)C(=O)O; assay: radiolabeled uptake and efflux in HEK-OATP4C1 vs vector control cells (Km); format: cell-based, Homo sapiens
# [2] = substrate: N=C(N)NCCC[C@H](N)C(=O)O; assay: radiolabeled uptake in HEK-OATP4C1 vs vector control cells (Km); format: cell-based, Homo sapiens
# [3] = substrate: CN(C)C(=N)NCCC[C@H](N)C(=O)O; assay: radiolabeled uptake and efflux in HEK-OATP4C1 vs vector control cells (Km); also inhibits L-homoarginine uptake; format: cell-based, Homo sapiens
Molecule,IC50 (OATP4C1),Km [1],Km [2],Km [3]
CN=C(NC)NCCC[C@H](N)C(=O)O [SDMA],54 ± 1.3 µM,,,
OATP4C1 (Homo sapiens) (protein) MKSAKGIENLAFVPSSPDILRRLSASPSQIEVSALSSDPQRENSQPQELQKPQEPQKSPEPSLPSAPPNVSEEKLRSLSLSEFEEGSYGWRNFHPQCLQRCNTPGGFLLHYCLLAVTQGIVVNGLVNISISTVEKRYEMKSSLTGLISSSYDISFCLLSLFVSFFGERGHKPRWLAFAAFMIGLGALVFSLPQFFSGEYKLGSLFEDTCVTTRNSTSCTSSTSSLSNYLYVFILGQLLLGAGGTPLYTLGTAFLDDSVPTHKSSLYIGTGYAMSILGPAIGYVLGGQLLTIYIDVAMGESTDVTEDDPRWLGAWWIGFLLSWIFAWSLIIPFSCFPKHLPGTAEIQAGKTSQAHQSNSNADVKFGKSIKDFPAALKNLMKNAVFMCLVLSTSSEALITTGFATFLPKFIENQFGLTSSFAATLGGAVLIPGAALGQILGGFLVSKFRMTCKNTMKFALFTSGVALTLSFVFMYAKCENEPFAGVSESYNGTGELGNLIAPCNANCNCSRSYYYPVCGDGVQYFSPCFAGCSNPVAHRKPKVYYNCSCIERKTEITSTAETFGFEAKAGKCETHCAKLPIFLCIFFIVIIFTFMAGTPITVSILRCVNHRQRSLALGIQFMVLRLLGTIPGPIIFGFTIDSTCILWDINDCGIKGACWIYDNIKMAHMLVAISVTCKVITMFFNGFAIFLYKPPPSATDVSFHKENAVVTNVLAEQDLNKIVKEG,,49.9 ± 9.6 µM,48.1 ± 5.7 µM,232.1 ± 78.9 µM
